These results are taken from patent US20220298212A1 (Molecular Partners, published 2022).

This experiment has as its target T1, biotinylated human 4-1BB (recombinant Fc fusion protein of the extracellular domain of human 4-1BB) (human, UniProt Q07011 24-186, biotinylated (site not stated)).
T1 construct: Bought from BPS Bioscience; tie to the Fc fusion is by the Materials paragraph; also called h4-1BB; CD137; not shown: Fc part of the purchased fusion (BPS Bioscience)
The experiment is described as follows: SPR (ProteOn), biotinylated human 4-1BB on NLC chip, PBST. The method, then:
Briefly, biotinylated human 4-1 BB was diluted in PBST (PBS, pH 7.4 containing 0.005% Tween 20®) and coated on a NLC chip (BioRad) to a level of around 320 resonance units (RU) (600 RU for single trace SPR measurements). The interaction of ankyrin repeat protein and h4-1 BB was then measured by injecting 200 μl running buffer (PBS, pH 7.4 containing 0.005% Tween 20®) containing serial dilutions of ankyrin repeat proteins covering a concentration range between 50 nM and 0.5 nM for multi-trace SPR measurements or 50 nM for single trace measurements (on-rate measurement), followed by a running buffer flow for at least 30 minutes at a constant flow rate of 100 μl/min (off-rate measurement). The regeneration was performed using 30 μl of 10 mM Glycine pH 2 followed by 30 μl of 124 mM H₃PO₄. The signals (i.e. resonance unit (RU) values) of the interspots and a reference injection (i.e. injection of running buffer only) were subtracted from the RU traces obtained after injection of ankyrin repeat protein (double-referencing). Based on the SPR traces obtained from the on-rate and off-rate measurements, the on- and off-rate of the corresponding ankyrin repeat protein—4-1 BB interaction was determined.
Dissociation constants (KD) were calculated from the estimated on- and off-rates using standard procedures known to the person skilled in the art.

B1: DARPin® protein #3 (designed binder)
chain: MRGSHHHHHHGSDLGRKLLQAAQLGQDDEVRELLKAGADVNAKDSRGITPLHVAAWQGHLEIVEVLLKASADVNAKDHAGITPLHLAAFLGHLEIVEVLLKAGADVNAQDQEGRTPADLAALQGHEDIAKVLQKLN
As for B1, the dissociation constant (Kd) – broadly, the constant that tells how readily two partners part at equilibrium – was determined as 1.25 nM.

B2: DARPin® protein #13 (designed binder)
chain: MRGSHHHHHHGSDLGLKLLYAAAEGQDDEVRILLAAGADVNAKDTRGQTPLHYAAWFGHLEIVEVLLKAGADVNAKDWSGDTPLHVAAWRGHLEIVEVLLKAGADVNAQDNSGNTPADLAAWIGHEDIAEVLQKLN
Regarding B2, the Kd amounted to 0.69 nM.

B3: DARPin® protein #18 (designed binder)
chain: MRGSHHHHHHGSDLGYKLLYAAAYGQDDEVRILLAAGADVNAKDQYGETPLHHAASHGHLEIVEVLLKAGADVNAKDTLGDTPLHLAAVVGHLEIVEVLLKAGADVNAQDTEGKTPADLAAYTGHEDIAEVLQKLN
With B3, the Kd came to 1.47 nM.

B4: DARPin® protein #16 (designed binder)
chain: MRGSHHHHHHGSDLGAKLLNAAFFGQDDEVRILLAAGADVNAKDDYGHTPLHWAAVTGHLEIVEVLLKAGADVNAKDWLGETPLHHAAYEGHLEIVEVLLKAGADVNAQDEQGETPADLAAYEGHEDIAEVLLKAGADVNAQDDKGFTPADLAAIVGHEDIAEVLQKLN
Turning to B4, the Kd was determined as 1.6 nM.

B5: DARPin® protein #22 (designed binder)
chain: MRGSHHHHHHGSDLGEKLLWAAWEGQGDEVRILLAAGADVNAKDLTGRTPLHFAAHSGHLEIVEVLLKAGADVNAKDNAGRTPLHLAAELGHLEIVEVLLKAGADVNAQDKSGKTPADLAADAGHEDIAEVLQKAA
Consider B5, for which the Kd is 0.13 nM.

B6: DARPin® protein #23 (designed binder)
chain: MRGSHHHHHHGSDLGEKLLWAAYLGQDDEVRILLAAGADVNAKDATGRTPLHFAAHSGHLEIVEVLLKAGADVNAKDNAGRTPLHLAAELGHLEIVEVLLKAGADVNAQDKSGKTPADLAADAGHEDIAEVLQKAA
Regarding B6, the Kd was determined as 0.6 nM.

B7: DARPin® protein #9 (designed binder)
chain: MRGSHHHHHHGSDLGEKLLHAAYYGQDDEVRILLAAGADVNAKDNIGVTPLHFAAYFGHLEIVEVLLKAGADVNAQDYYGKTPADLAAYHGHEDIAEVLQKLN
Consider B7, for which the Kd amounted to 0.19 nM.

B8: DARPin® protein #10 (designed binder)
chain: MRGSHHHHHHGSDLGDKLLHAAYYGQDDEVRILLAAGADVNAKDNIGVTPLHFAAYFGHLEIVEVLLKAGADVNAQDYYGKTPADLAAYHGHEDIAEVLQKLN
As to B8, the Kd came out at 0.25 nM.

B9: DARPin® protein #4 (designed binder)
chain: MRGSHHHHHHGSDLGKKLLEAARAGQDDEVRELLKAGADVNAKDTYGETPLHLAAWKGHLEIVEVLLKAGADVNAKDSIGITPLHVAAHHGHLEIVEVLLKAGADVNAKDKWGRTPLHLAALLGHLEIAEVLLKAGADVNAQDKSGKTPADLAADAGHDDIAEVLQKLN
Regarding B9, the Kd amounted to 2.25 nM.

B10: DARPin® protein #25 (designed binder)
chain: MRGSHHHHHHGSDLGKKLLEAARAGQDDEVRELLKAGADVNAKDEWGETPLHLAAWKGHLEIVEVLLKAGADVNAKDSIGITPLHVAAHHGHLEIVEVLLKAGADVNAKDKWGRTPLHLAALLGHLEIVEVLLKAGADVNAQDKSGKTPADLAADAGREDIAEVLQKLN
With B10, the equilibrium dissociation constant (Kd) is 1.56 nM.

B11: DARPin® protein #1 (designed binder)
chain: MRGSHHHHHHGSDLGQKLLKAAQEGQDDEVRELLKAGADVNAKDLRGITPLHVAAWQGHLEIVEVLLKAGADVNAKDSKGETPLHLAAFRGHLEIVEVLLKAGADVNAQDQQGETPADLAALAGHVDIAEVLQKAA
For B11, the Kd is 0.47 nM.

B12: DARPin® protein #21 (designed binder)
chain: MRGSHHHHHHGSDLGEKLLTAAYYGQDDEVRILLAAGADVNAKDKQGLTPLHYAAAVGHLEIVEVLLKAGTDVNAKDFYGETPLHLAASRGHLEIVEVLLKAGADVNAQDKSGKTPADLAADAGHEDIAEVLQKAA
As for B12, the Kd was found to be 0.16 nM.

B13: DARPin® protein #24 (designed binder)
chain: MRGSHHHHHHGSDLGEKLLNAAYYGQDDEVRILLAAGADVNAKDVKGETPLHYAAAVGHLEIVEVLLKAGADVNAKDQYGATPLHLAAYKGHLEIVEVLLKAGADVNAQDKSGKTPADLAADAGHEDIAEVLQKAA
Regarding B13, the Kd was determined as 0.29 nM.

B14: DARPin® protein #20 (designed binder)
chain: MRGSHHHHHHGSDLGEKLLHAAYYGQDDEVRILLAAGADVNAKDDQGLTPLHLAAAIGHLEIVEVLLKAGADVNAKDAYGETPLHLAARRGHLEIVEVLLKAGADVNAQDKSGKTPADLAADAGHEDIAEVLQKAA
For B14, the Kd amounted to 0.48 nM.

B15: DARPin® protein #2 (designed binder)
chain: MRGSHHHHHHGSDLGKKLLVAANVGQDDEVRILLAAGADVNAKDYHGYTPLHHAATYGHLEIVEVLLKAGADVNAKDQTGLTPLHLAAAKGHLEIVEVLLKAGADVNAQDHHGYTPADLAAFVGHEDIAVVLQKLN
Consider B15, for which the Kd was 0.86 nM.

B16: DARPin® protein #6 (designed binder)
chain: MRGSHHHHHHGSDLGKKLLVAANVGQDDEVRILLAAGADVNAKDYHGYTPLHHAATYGHLEIVEVLLKAGADVNAKDQTGLTPLHLAAAKGHLEIVEVLLKAGADVNAQDHHGYTPADLAAFVGHEDIAVVLQKLN
As for B16, the Kd is 2.58 nM.

B17: DARPin® protein #5 (designed binder)
chain: MRGSHHHHHHGSDLGKKLLEAARAGQDDEVRELLKAGADVNAKDQEHGSTPLHLAANYGHLEIVEVLLKAGADVNAKNWWGNTPLHLAAVYGHLEIVEVLLKAGADVNAKDNHGHTPLHLAAWYGHLEIVEVLLKAGADVNAQDKSGKTPADLAADAGHEDIAEVLQKAA
For B17, the Kd is 0.35 nM.

B18: DARPin® protein #8 (designed binder)
chain: MRGSHHHHHHGSDLGKKLLEAARAGQDDEVRELLKAGADVNAKDRFGSTPLHIAAREGHLEIVEVLLKAGADVNAKDSWGATPLHIAAWRGHLEIVEVLLKAGADVNAKDRWGRTPLHIAAWTGHLEIVEVLLKACADVNAQDKSGKTPADLAADVGLEDIAEVLQKLN
Take B18: the Kd amounted to 0.02 nM.

B19: DARPin® protein #26 (designed binder)
chain: MRGSHHHHHHGSDLGKKLLEAARAGQDDEVRELLKAGADVNAKDHAGQTPLHIAALRGHLEIVEVLLKAGADVNAKDKYGQTPLHLAAILGHLEIVEVLLKAGADVNAKDQEGDTPLHIAAWQGHLEIVEVLLKAGADVNAQDKSGKTPADLAADAGHEDITEVLQKLN
B19: the Kd is 0.83 nM.

B20: DARPin® protein #7 (designed binder)
chain: MRGSHHHHHHGSDLGSKLLNAARKGQDDEVRILLAAGADVNAKDYYGQTPLHLAAVFGHLEIVEVLLKAGADVNAKDVLGRTPLHVAAYAGHLEIAEVLLKAGADVNAQDFDGFTPADLAAYVGLEDIAEVLQKLN
Regarding B20, the Kd is 0.54 nM.

B21: DARPin® protein #14 (designed binder)
chain: MRGSHHHHHHGSDLGQKLLYAAFYGQDDEVRILLAAGADVNAKDFFGTTPLHWAAHAGHLEIVEVLLKAGADVNAKDQWGTTPLHYAAYYGHLEIVEVLLKAGADVNAQDDKGFTPADLAAIVGHEDIAEVLQKLN
Consider B21, for which the Kd is 0.51 nM.

B22: DARPin® protein #11 (designed binder)
chain: MRGSHHHHHHGSDLGWKLLSAAWQGQDDEVRILLAAGADVNAKDTFGTTPLHWAAHAGHLEIVEVLLKAGADVNAKDQWGTTPLHYAAYYGHLEIVEVLLKAGADVNAQDDKGFTPADLAAIVGHEDIAEVLQKLN
Regarding B22, the equilibrium dissociation constant (Kd) came to 0.38 nM.

B23: DARPin® protein #12 (designed binder)
chain: MRGSHHHHHHGSDLGQKLLHTAYDGQDDEVRILLAAGADVNAKDFFGTTPLHWAAHAGHLEIVEVLLKAGADVNAKDQWGTTPLHYAAYYGHLEIVEVLLKAGADVNAQDDKGFTPADLAAIVGHEDIAEVLQKLN
Take B23: the Kd amounted to 0.74 nM.

B24: DARPin® protein #15 (designed binder)
chain: MRGSHHHHHHGSDLGQKLLYAAYYGQDDEVRILLAAGADVNAKDFFGTTPLHWAAHAGHLEIVEVLLKAGADVNAKDQWGTTPLHYAAYQGHLEIVEVLLKAGADVNAQDTTGATPADLAAQAGHEDIAEVLQKLN
Regarding B24, the Kd is 5 nM.

B25: DARPin® protein #17 (designed binder)
chain: MRGSHHHHHHGSDLGEKLLYAAYYGQDDEVRILLAAGADVNAKDHVGLTPLHYAAAIGHLEIVEVLLKAGADVNAKDHYGYTPLHYAAYKGHLEIVEVLLKAGADVNAQDSAGHTPADLAAHHGHEDIAEVLQKLN
Turning to B25, the Kd is 0.5 nM.

B26: DARPin® protein #19 (designed binder)
chain: MRGSHHHHHHGSDLGKKLLEAARAGQDDEVRELLKAGADVNAKDTHGWTPLHVAALEGHLEIVEVLLKAGAYVNAKDEWGQTPLHVAAWRGHLEIVEVLLKAGADVNAKDRYGWTPLHIAAWLGHLEIAEVLLKAGADVNAQDKSGKTPADLAADAGQEDIVEVLQKLN
On to B26, for which the Kd worked out at 1.6 nM.
